The text below walks through data of patent US7460961B2, “N-TRADD active site and uses thereof” (Genetics Institute, LLC, priority 2000, dated 2008).

The data set in a line: Solubility and stability of the N-TRADD NMR sample. The class given is physicochemical. From the text:
Cloning and site directed mutagenesis: The DNA sequence coding for the first 169 amino acids from N-TRADD was cloned in pRSETB (Invitrogen) after amplification by PCR. The primer at the 5′ end introduces an NdeI site upstream from the initiation site, and the primer at the 3′ end introduces a His tag after aa169. The sequence was confirmed by sequencing analysis. Single point mutations were introduced using Chameleon double-stranded site directed mutagenesis (Stratagene). The C-TRAF2 sequence (residues 262 to 501 of human TRAF2) was amplified by PCR using a 5′ end primer flanking with an XhoI and NdeI site, which introduces a Met before residue 262, and a 3′ end primer introducing 6×His before a stop codon followed by a NcoI site. The C-TRAF2 sequence was cloned into pAcSG2 (Pharmingen) by XhoI and NcoI sites for baculovirus expression. Protein expression and purification: The polypeptide for N-TRADD (1-169) was overexpressed in BL-21 E. coli. [U-^15N] or [U-^13C, U-^15N]. N-TRADD was purified from cells grown at 25° C. on minimal medium containing 2 g/L […] or [^15N]ammonium sulfate and 2 g/L [U-^13C]glucose. […]
Structure Determination: The structure of N-TRADD was determined from 2302 NMR derived restraints obtained using uniformly ^15N and ^15N/^13C labeled protein, with double and triple resonance NMR experiments. […]

B1: N-TRADD: N-terminal domain (amino acid residues 1-169, SEQ ID NO:1) of human TNFR-1 associated death domain protein (protein)
chain: MAAGQNGHEWVGSAYLFVESSLDKVVLSDAYAHPQQKVAVYRALQAALAESGGSPDVLQMLKIHRSDPQLIVQLRFCGRQPCGRFLRAYREGALRAALQRSLAAALAQHSVPLQLELRAGAERLDALLADEERCLSCILAQQPDRLRDEELAELEDALRNLKCGSGAR
As to B1, the solubility (dithiothreitol (20 mM) required to prevent aggregation) was approximately 1000 µM. Further, the sample stability (~1 mM, 20 mM dithiothreitol) is recorded as 6-8 weeks.

For orientation: solubility means the dissolved amount per volume that the medium holds. A high value points to a readily soluble substance.
